Source: US20110009316A1

How the values were obtained:
[1] = target: VEGF165 wild type synthesized in COS-1 cells (UniProt P15692)
[2] = target: commercially available recombinant VEGF165 protein (R&D Systems) (UniProt P15692)
MutGln = MutGln (UniProt P15692)
MutAla = MutAla (UniProt P15692)
[3] = target: VEGF165 wild type synthesized in COS-1 cells (UniProt P15692); assay: cell-based or functional assay
[4] = target: commercially available recombinant VEGF165 protein (R&D Systems) (UniProt P15692); assay: cell-based or functional assay

Chain of MutLys-Pro (chain, as listed by the source): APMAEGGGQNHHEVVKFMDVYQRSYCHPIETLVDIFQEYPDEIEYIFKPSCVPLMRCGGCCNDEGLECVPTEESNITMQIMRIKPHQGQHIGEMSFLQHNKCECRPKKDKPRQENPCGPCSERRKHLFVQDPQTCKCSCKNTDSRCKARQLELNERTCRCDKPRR
Chain of MutPro (chain, as listed by the source): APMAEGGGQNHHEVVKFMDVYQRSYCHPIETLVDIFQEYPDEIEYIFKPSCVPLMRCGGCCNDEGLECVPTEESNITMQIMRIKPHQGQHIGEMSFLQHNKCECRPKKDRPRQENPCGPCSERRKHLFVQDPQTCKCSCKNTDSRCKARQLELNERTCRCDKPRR

Substance | degradation on incubation with plasmin [0.01 U/ml], Western blotting and immunodetection [1] | degradation on incubation with plasmin [0.01 U/ml], Western blotting and immunodetection [2] | degradation on incubation with plasmin [0.01 U/ml], Western blotting and immunodetection (MutGln) | degradation on incubation with plasmin [0.01 U/ml], Western blotting and immunodetection (MutLys-Pro) | degradation on incubation with plasmin [0.01 U/ml], Western blotting and immunodetection (MutAla) | degradation on incubation with plasmin [0.01 U/ml], Western blotting and immunodetection (MutPro) | loss of biological activity (BrdU incorporation into HUVE cells) 20 minutes after incubation with plasmin [3] [%] | remaining biological activity (BrdU incorporation into HUVE cells) after 240 minutes with plasmin (% of the initial activity) [3] | loss of biological activity (BrdU incorporation into HUVE cells) 20 minutes after incubation with plasmin [4] [%] | remaining biological activity (BrdU incorporation into HUVE cells) after 240 minutes with plasmin (% of the initial activity) [4]
plasmin | shows degradation of the growth factor after only 15 minutes | the degradation pattern is similar to that of the commercially obtainable VEGF165 | also show a comparable stability of the signal bands at 45 and 42 kDA after incubation with plasmid for 240 minutes | also show a comparable stability of the signal bands at 45 and 42 kDA after incubation with plasmid for 240 minutes | the mutated protein shows no change in the migration behaviour up to 240 minutes after incubation | also show a comparable stability of the signal bands at 45 and 42 kDA after incubation with plasmid for 240 minutes |  |  |  | 
plasmin (enzyme) |  |  |  |  |  |  | > 20 | 50 | > 20 | 50
